Tested on: HDM2 (C-terminal HA);p53 (human;human?)
Experiment: pull-down (anti-HA beads, real-time PCR)
Details: 100 uM Nutlin-3A (disrupts p53-HDM2); Anti-HA protein G beads; blocked in PBST-3% BSA, IVT HDM2 30 min, Nutlin 1 h, IVT p53 1 h; washes PBST-0.1% BSA then PBS; temperature and pH not given

For “2ConA-HDM2 DNA template (two CONA p53 response elements)”, the binding signal (fold reduction of DNA pulled down) was 383.

— paper PMC3641235
